From the RNAGym collection of RNA variant scans (doi:10.1101/gr.219683.116)

B1: mRNA-splicing (parent)
chain: AGUUGCUGCUGGGAGCUCCAGCACAGUGAAAUGGACAGAAGGGCAGAGCAA

Variants of: B1
Assay: exon inclusion enrichment index; higher = more inclusion; WT1 exon 5 minigene, HEK293

Row | Variant | exon inclusion enrichment index
1 | AGUUAGGAAUGGGAGCUCCAGCACAGUGAAAUGGACAGAAGGGCAGAGCAA | 0.00786
2 | AGUUAGGAGUGGGAGCUCCAGCACAGUGAAAUGGACAGAAGGGCAGAGCAA | 0.0105
3 | AGUUAGGAUUGGGAGCUCCAGCACAGUGAAAUGGACAGAAGGGCAGAGCAA | 0.0075
4 | AGUUAGGACCGGGAGCUCCAGCACAGUGAAAUGGACAGAAGGGCAGAGCAA | 0.159
5 | AGUUAGGCCUGGGAGCUCCAGCACAGUGAAAUGGACAGAAGGGCAGAGCAA | 0.00742
6 | AGUUAGGCAUGGGAGCUCCAGCACAGUGAAAUGGACAGAAGGGCAGAGCAA | 0.0086
7 | AGUUAGGCGUGGGAGCUCCAGCACAGUGAAAUGGACAGAAGGGCAGAGCAA | 0.0513
8 | AGUUAGGCUUGGGAGCUCCAGCACAGUGAAAUGGACAGAAGGGCAGAGCAA | 0.00108
9 | AGUUAGGUCUGGGAGCUCCAGCACAGUGAAAUGGACAGAAGGGCAGAGCAA | 0.00501
10 | AGUUAGGUAUGGGAGCUCCAGCACAGUGAAAUGGACAGAAGGGCAGAGCAA | 0.00192
11 | AGUUAGGUGUGGGAGCUCCAGCACAGUGAAAUGGACAGAAGGGCAGAGCAA | 0.00173
12 | AGUUAGGUUUGGGAGCUCCAGCACAGUGAAAUGGACAGAAGGGCAGAGCAA | 0.00149
13 | AGUUAGGGCAGGGAGCUCCAGCACAGUGAAAUGGACAGAAGGGCAGAGCAA | 0.00101
14 | AGUUAGGGCCGGGAGCUCCAGCACAGUGAAAUGGACAGAAGGGCAGAGCAA | 0.0118
15 | AGUUAGGGCGGGGAGCUCCAGCACAGUGAAAUGGACAGAAGGGCAGAGCAA | 0.0189
16 | AGUUAUUGCUGGGAGCUCCAGCACAGUGAAAUGGACAGAAGGGCAGAGCAA | 0.0142
17 | AGUUAUUGAUGGGAGCUCCAGCACAGUGAAAUGGACAGAAGGGCAGAGCAA | 0.306
18 | AGUUAUUAAUGGGAGCUCCAGCACAGUGAAAUGGACAGAAGGGCAGAGCAA | 0.0634
19 | AGUUAUUACCGGGAGCUCCAGCACAGUGAAAUGGACAGAAGGGCAGAGCAA | 0.819
20 | AGUUAUUCAUGGGAGCUCCAGCACAGUGAAAUGGACAGAAGGGCAGAGCAA | 0.357
21 | AGUUAUUCUCGGGAGCUCCAGCACAGUGAAAUGGACAGAAGGGCAGAGCAA | 0.807
22 | AGUUAUUUAUGGGAGCUCCAGCACAGUGAAAUGGACAGAAGGGCAGAGCAA | 0.038
23 | AGUUAUUUUUGGGAGCUCCAGCACAGUGAAAUGGACAGAAGGGCAGAGCAA | 0.0357
24 | AGUUAUAGCUGGGAGCUCCAGCACAGUGAAAUGGACAGAAGGGCAGAGCAA | 0.0138
25 | AGUUAUAGAUGGGAGCUCCAGCACAGUGAAAUGGACAGAAGGGCAGAGCAA | 0.0715
26 | AGUUAUAGAAGGGAGCUCCAGCACAGUGAAAUGGACAGAAGGGCAGAGCAA | 0.0444

Row | Variant | exon inclusion enrichment index
27 | AGUUAUAGGUGGGAGCUCCAGCACAGUGAAAUGGACAGAAGGGCAGAGCAA | 0.0115
28 | AGUUAUAGUUGGGAGCUCCAGCACAGUGAAAUGGACAGAAGGGCAGAGCAA | 0.0151
29 | AGUUAUAACUGGGAGCUCCAGCACAGUGAAAUGGACAGAAGGGCAGAGCAA | 0.217
30 | AGUUAUAAAUGGGAGCUCCAGCACAGUGAAAUGGACAGAAGGGCAGAGCAA | 0.0655
31 | AGUUAUAAGUGGGAGCUCCAGCACAGUGAAAUGGACAGAAGGGCAGAGCAA | 0.0475
32 | AGUUAUAAUUGGGAGCUCCAGCACAGUGAAAUGGACAGAAGGGCAGAGCAA | 0.0446
33 | AGUUAUAACCGGGAGCUCCAGCACAGUGAAAUGGACAGAAGGGCAGAGCAA | 0.863
34 | AGUUAUACCUGGGAGCUCCAGCACAGUGAAAUGGACAGAAGGGCAGAGCAA | 0.696
35 | AGUUAUACAUGGGAGCUCCAGCACAGUGAAAUGGACAGAAGGGCAGAGCAA | 0.286
36 | AGUUAUACGUGGGAGCUCCAGCACAGUGAAAUGGACAGAAGGGCAGAGCAA | 0.736
37 | AGUUAUACUUGGGAGCUCCAGCACAGUGAAAUGGACAGAAGGGCAGAGCAA | 0.218
38 | AGUUAUAUCUGGGAGCUCCAGCACAGUGAAAUGGACAGAAGGGCAGAGCAA | 0.171
39 | AGUUAUAUAUGGGAGCUCCAGCACAGUGAAAUGGACAGAAGGGCAGAGCAA | 0.074
40 | AGUUAUAUAUGGGCGCUCCAGCACAGUGAAAUGGACAGAAGGGCAGAGCAA | 0.0601
41 | AGUUAUAUAUGGGCACUCCAGCACAGUGAAAUGGACAGAAGGGCAGAGCAA | 0.00652
42 | AGUUAUAUAUGGGCCCUCCAGCACAGUGAAAUGGACAGAAGGGCAGAGCAA | 0.0124
43 | AGUUAUAUAUGGGCUCUCCAGCACAGUGAAAUGGACAGAAGGGCAGAGCAA | 0.0114
44 | AGUUAUAUAUGGGGGCUCCAGCACAGUGAAAUGGACAGAAGGGCAGAGCAA | 0.0395
45 | AGUUAUAUAUGGGGACUCCAGCACAGUGAAAUGGACAGAAGGGCAGAGCAA | 0.0192
46 | AGUUAUAUAUGGGGCCUCCAGCACAGUGAAAUGGACAGAAGGGCAGAGCAA | 0.0123
47 | AGUUAUAUAUGGGGUCUCCAGCACAGUGAAAUGGACAGAAGGGCAGAGCAA | 0.00355
48 | AGUUAUAUAUGGGUGCUCCAGCACAGUGAAAUGGACAGAAGGGCAGAGCAA | 0.00769
49 | AGUUAUAUAUGGGUACUCCAGCACAGUGAAAUGGACAGAAGGGCAGAGCAA | 0.0025
50 | AGUUAUAUAUGGGUCCUCCAGCACAGUGAAAUGGACAGAAGGGCAGAGCAA | 0.00818
51 | AGUUAUAUAUGGGUUCUCCAGCACAGUGAAAUGGACAGAAGGGCAGAGCAA | 0.00593
